Data: patent US6808930B1, “Therapeutic agents” (priority 1997, dated 2004)

Assays:
L1210 cells [1] = assay: DNA fragmentation by gel electrophoresis and FIGE; format: cell-based, murine
Procedure: Remaining cells were analysed for DNA fragmentation.

L1210 cells [2] = assay: Nuclear uptake of biotinylated protein, confocal microscopy; format: cell-based, murine
Procedure: To detect intracellular protein, the cells were fixed at various times after addition of 0.3 mg/ml of biotinylated MAL for 5 min in phosphate-buffered paraformaldehyde (4%) (B. Sander et al., Immunol. Rev. (1991) 119: 65-92) at room temperature, washed in PBS, and permeabilized with 0.1% saponin in PBS. FITC conjugated streptavidin (diluted 1:100 in 0.1% saponin) was added and the cells were incubated for 30 min at room temperature. The cells were washed twice in PBS-saponin and once in PBS, mounted on a glass slide and analysed in a Bio-Rad 1024 laser scanning confocal equipment (Bio Rad Laboratories, Hemel-Hempstead, UK) attached to a Nikon Diaphot inverted microscope.

B1: MAL: protein complex from human milk casein containing oligomeric forms of α-lactalbumin; the apoptosis-inducing fraction (protein, UniProt P00709 20-142, looked up)
Alpha-lactalbumin: KQFTKCELSQLLKDIDGYGGIALPELICTMFHTSGYDTQAIVENNESTEYGLFQISNKLWCKSSQVPQSRNICDISCDKFLDDDITDDIMCAKKILDIKGIDYWLAHKALCTEKLEQWLCEKL
modifications: oligomeric form from milk casein
notes: protein complex from human milk casein containing oligomeric forms of α-lactalbumin; the apoptosis-inducing fraction
In the case of B1, the “time at which fragmentation of DNA was first seen” value (L1210 cells [1]; 0.3 mg/ml) is reported as 6 h, the “incubation time after which HMW DNA fragments were observed” value (L1210 cells [1]; 0.5 mg/ml) is reported as 30 min and the “incubation time after which oligonucleosome length DNA fragments were detected” value (L1210 cells [1]; 0.5 mg/ml) is reported as “three”. The “time at which fragmentation of DNA was seen” value (L1210 cells [1]; 0.75 mg/ml) was 2 h, the “cells with nuclear staining” value (L1210 cells [2]; 0.3 mg/ml biotinylated protein, after about 2 hours (first detected)) was “about 10%” and the “cells with nuclear staining” value (L1210 cells [2]; 0.3 mg/ml, after 1 hour) was 10%. The cytoplasmic staining (L1210 cells [2]; biotinylated MAL) was “Cytoplasmic staining was not observed”.
